Measurements as given in publication PMC9606253.

Key:
[1] = target: SMARCA4 (mouse (endogenous in mouse brain)) (UniProt Q3TKT4); experiment: co-IP; three successive immunodepletions of adult Brwd1^FLAG-HA brain nuclear extract with antibodies to SMARCA4 or SS18L1 or IgG; signal left in the final flow-through by blot densitometry, normalised to IgG
[2] = target: SS18L1 (mouse (endogenous in mouse brain)) (UniProt Q8BW22); experiment: as above
[3] = target: SS18 (mouse (endogenous in mouse brain)) (UniProt Q62280); experiment: co-IP; three successive immunodepletions of E17.5 Brwd1^FLAG-HA brain nuclear extract with antibodies to SMARCA4, SS18 or SS18L1 or IgG; signal left in the final flow-through by blot densitometry, normalised to IgG
[4] = target: SMARCA4 (mouse (endogenous in mouse brain)) (UniProt Q3TKT4); experiment: co-IP; brain nuclear extract partially denatured with 0, 0.25, 0.5, 1, 2 or 4 M urea (15 min, room temperature), dialysed, then IP with anti-SMARCA4 (BRG1 H-10) or mouse IgG; bound protein normalised to immunoprecipitated SMARCA4 (n = 3)

Chain of SMARCA4 (mouse (endogenous in mouse brain)) (Q3TKT4 whole entry): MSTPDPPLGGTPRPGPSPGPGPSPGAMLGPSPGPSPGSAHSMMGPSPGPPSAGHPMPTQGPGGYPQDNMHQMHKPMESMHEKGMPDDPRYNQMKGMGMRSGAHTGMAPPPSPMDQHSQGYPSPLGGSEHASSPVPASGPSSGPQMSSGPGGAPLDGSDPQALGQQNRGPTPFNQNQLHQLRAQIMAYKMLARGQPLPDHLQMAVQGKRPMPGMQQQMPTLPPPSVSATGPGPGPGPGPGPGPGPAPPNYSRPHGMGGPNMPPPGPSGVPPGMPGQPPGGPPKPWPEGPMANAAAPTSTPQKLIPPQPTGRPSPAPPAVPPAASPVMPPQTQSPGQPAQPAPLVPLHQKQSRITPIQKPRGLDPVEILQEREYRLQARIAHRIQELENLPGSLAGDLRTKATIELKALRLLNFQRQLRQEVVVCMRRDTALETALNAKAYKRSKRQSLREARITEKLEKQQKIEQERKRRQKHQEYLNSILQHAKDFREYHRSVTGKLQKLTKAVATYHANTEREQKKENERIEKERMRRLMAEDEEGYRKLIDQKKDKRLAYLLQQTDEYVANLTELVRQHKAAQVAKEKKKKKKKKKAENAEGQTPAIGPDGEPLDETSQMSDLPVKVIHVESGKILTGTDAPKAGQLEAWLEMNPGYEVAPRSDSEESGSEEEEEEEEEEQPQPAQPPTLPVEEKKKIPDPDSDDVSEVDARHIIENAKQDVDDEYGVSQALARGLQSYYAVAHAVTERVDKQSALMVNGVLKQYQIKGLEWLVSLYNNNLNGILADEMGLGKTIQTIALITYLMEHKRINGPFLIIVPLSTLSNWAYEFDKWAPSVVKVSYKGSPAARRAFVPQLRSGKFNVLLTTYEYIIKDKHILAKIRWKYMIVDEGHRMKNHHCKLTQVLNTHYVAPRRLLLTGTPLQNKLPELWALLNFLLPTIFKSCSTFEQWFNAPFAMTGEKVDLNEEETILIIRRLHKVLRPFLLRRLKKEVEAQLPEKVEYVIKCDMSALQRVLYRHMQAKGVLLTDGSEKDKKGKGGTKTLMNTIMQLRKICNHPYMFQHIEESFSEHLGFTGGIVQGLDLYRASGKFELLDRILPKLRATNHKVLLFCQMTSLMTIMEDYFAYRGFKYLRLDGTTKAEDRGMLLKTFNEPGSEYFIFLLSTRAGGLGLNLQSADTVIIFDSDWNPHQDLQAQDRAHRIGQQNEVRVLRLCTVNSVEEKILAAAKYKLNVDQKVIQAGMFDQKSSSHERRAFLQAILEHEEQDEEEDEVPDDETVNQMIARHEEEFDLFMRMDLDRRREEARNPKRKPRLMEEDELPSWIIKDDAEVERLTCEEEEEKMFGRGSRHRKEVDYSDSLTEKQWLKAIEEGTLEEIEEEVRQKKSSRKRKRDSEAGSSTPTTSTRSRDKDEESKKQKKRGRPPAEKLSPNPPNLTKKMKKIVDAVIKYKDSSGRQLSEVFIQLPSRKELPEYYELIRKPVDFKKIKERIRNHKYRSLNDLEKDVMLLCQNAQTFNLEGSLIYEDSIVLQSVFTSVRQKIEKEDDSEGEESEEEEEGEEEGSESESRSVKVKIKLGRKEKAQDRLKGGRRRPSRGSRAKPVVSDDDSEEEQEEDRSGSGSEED
Chain of BRWD1-FLAG-HA, Q921C3 1-2304 (natural protein) (Q921C3 whole entry): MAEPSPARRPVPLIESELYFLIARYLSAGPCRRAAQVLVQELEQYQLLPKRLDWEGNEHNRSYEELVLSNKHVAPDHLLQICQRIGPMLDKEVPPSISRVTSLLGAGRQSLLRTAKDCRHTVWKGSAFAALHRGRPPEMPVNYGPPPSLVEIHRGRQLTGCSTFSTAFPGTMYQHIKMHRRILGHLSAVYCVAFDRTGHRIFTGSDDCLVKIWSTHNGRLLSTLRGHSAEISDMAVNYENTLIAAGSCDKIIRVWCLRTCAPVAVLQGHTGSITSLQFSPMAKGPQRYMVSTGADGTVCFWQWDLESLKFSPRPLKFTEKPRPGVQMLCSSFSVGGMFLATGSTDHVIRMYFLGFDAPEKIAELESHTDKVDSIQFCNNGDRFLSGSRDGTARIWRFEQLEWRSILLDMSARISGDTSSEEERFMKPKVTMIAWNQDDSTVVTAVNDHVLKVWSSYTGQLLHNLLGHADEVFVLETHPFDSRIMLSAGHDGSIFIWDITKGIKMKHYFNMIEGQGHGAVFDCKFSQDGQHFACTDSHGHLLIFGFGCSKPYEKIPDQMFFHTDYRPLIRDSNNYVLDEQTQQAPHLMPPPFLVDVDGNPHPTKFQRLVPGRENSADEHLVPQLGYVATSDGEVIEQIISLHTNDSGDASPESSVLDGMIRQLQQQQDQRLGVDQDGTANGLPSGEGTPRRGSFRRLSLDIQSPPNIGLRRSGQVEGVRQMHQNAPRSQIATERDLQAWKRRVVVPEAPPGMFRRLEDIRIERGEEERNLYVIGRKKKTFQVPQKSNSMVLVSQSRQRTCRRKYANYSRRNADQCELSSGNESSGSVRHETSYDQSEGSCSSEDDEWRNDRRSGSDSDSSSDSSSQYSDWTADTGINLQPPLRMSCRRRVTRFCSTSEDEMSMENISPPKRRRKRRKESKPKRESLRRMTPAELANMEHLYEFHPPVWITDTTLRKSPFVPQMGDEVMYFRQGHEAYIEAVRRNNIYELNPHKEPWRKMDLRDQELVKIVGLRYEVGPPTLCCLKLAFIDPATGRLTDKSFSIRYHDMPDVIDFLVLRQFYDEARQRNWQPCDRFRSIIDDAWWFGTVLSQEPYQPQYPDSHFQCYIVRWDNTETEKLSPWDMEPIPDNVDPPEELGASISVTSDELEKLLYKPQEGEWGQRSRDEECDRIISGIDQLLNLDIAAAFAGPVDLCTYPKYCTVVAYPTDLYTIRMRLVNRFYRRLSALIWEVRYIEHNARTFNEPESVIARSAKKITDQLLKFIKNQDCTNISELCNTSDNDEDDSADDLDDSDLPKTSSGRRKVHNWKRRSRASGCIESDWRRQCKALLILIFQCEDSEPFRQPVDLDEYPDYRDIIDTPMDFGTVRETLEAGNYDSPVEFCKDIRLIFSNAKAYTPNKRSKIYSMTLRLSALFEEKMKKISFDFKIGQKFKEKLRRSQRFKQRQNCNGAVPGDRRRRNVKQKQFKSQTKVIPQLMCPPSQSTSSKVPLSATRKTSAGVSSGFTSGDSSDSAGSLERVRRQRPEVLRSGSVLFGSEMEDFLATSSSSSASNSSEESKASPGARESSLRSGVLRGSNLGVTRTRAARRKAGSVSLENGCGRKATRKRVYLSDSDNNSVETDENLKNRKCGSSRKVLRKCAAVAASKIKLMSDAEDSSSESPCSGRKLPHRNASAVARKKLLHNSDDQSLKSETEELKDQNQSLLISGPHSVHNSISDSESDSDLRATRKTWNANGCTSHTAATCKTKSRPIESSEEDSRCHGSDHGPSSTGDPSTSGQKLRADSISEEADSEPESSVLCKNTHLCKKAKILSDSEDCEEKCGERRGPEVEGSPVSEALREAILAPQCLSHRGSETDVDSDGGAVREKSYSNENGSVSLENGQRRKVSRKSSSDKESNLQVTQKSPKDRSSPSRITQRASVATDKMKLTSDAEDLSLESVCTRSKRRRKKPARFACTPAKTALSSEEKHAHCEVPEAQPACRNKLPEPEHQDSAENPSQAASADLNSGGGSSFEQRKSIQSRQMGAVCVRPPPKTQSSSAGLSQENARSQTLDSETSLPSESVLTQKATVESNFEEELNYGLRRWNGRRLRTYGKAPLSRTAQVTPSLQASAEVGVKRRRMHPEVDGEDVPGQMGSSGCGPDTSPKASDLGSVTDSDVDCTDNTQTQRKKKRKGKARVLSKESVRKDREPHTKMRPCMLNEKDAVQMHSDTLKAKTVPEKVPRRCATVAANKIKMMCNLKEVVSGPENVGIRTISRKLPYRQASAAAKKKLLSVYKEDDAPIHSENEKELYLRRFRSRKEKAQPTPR
Chain of SS18 (mouse (endogenous in mouse brain)) (Q62280 whole entry): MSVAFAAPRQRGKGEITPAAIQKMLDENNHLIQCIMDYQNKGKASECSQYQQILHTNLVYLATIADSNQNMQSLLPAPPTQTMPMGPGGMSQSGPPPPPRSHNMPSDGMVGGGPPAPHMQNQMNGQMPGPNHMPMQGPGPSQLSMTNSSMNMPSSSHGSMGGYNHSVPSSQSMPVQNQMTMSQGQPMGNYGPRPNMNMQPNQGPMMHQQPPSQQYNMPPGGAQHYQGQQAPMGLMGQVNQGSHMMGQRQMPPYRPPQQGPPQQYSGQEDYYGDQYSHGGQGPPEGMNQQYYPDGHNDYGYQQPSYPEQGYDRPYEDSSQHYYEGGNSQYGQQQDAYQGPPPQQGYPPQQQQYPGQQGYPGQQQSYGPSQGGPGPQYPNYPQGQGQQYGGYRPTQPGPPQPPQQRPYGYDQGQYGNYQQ
Chain of SS18L1 (mouse (endogenous in mouse brain)) (Q8BW22 whole entry): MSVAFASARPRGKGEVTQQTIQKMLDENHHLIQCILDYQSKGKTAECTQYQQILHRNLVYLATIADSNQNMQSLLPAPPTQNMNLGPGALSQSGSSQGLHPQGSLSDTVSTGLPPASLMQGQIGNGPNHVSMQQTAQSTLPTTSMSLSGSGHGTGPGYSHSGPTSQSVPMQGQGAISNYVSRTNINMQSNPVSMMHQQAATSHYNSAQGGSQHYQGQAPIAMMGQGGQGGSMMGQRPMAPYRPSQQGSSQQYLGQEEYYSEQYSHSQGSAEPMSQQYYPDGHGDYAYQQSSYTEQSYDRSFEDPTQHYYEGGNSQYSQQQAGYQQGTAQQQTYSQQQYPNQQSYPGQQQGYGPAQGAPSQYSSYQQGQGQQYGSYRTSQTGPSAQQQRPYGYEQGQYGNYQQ

percent co-depleted [1]: 20%
percent co-depleted [2]: 20%
percent co-depleted [3]: 20%
percent destabilized in 0.5 M urea [4]: 60%
percent remaining bound through 4 M urea [4]: 40%
Substance: BRWD1-FLAG-HA, Q921C3 1-2304 (natural protein)
